The record followed here is article PMC11946513 (The Journal of Biological Chemistry, 2025).

This test concerns the target T1, KAT6A MYST domain (KAT6A 501-784) (human, UniProt Q92794 501-784, autoacetylated K604 (as seen in the structure)).
T1 construct: KAT6A (MOZ), human, acetyltransferase (MYST) domain, residues 501-784, NCBI NP_006757.2; also called pHis-MYST domain; not shown: polyhistidine, N-terminal, cleaved
The experiment in a line: crystal structure; KAT6A MYST domain at 8 mg/ml complexed with H3K14-CoA in a 1:10 M ratio, 4 h at 4 °C; sitting drop, 1.25 M NH4SO4, 0.28 M NaCl, 0.1 M HEPES pH 6.4, 21 °C. As to conditions: both partners purified.

T1 sequence (Q92794 501-784): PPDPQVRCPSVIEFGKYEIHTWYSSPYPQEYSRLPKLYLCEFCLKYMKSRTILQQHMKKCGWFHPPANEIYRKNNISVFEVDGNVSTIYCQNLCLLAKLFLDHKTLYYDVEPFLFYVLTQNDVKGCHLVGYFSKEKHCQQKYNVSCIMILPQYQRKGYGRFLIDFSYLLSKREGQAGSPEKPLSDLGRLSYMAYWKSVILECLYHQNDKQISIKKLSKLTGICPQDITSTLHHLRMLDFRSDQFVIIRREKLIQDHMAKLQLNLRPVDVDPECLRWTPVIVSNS

B1: H3K14-CoA bisubstrate inhibitor (peptide)
peptide: QTARKSTGGKAPRKQLATK
modifications: ε-amino group of K14 covalently attached to CoA through a non-native acetyl bridge; 6-aminohexanoic acid (Ahx) linker on the N-terminus
notes: histone H3 tail, residues 5-23; Made on Rink Amide resin, so the C-terminus is probably an amide (surmised); Only residues 10-17 are resolved in the structure; also called peptidyl-CoA analogue; H3 (5-23) with K14 attached to CoA; source: synthetic peptide (manual Fmoc synthesis on Nova PEG Rink Amide, HPLC purified, coupled to Coenzyme A)
On to B1, for which the binding result is “binds”.
